This series has as its target dna2-D657A (nuclease-dead);RPA (Saccharomyces cerevisiae;Saccharomyces …, UniProt P38859;P22336;P26754;P26755 1-1522;1-621;1-273;1-122, D657A|). The series can be described thus: EMSA; ternary complex; EMSA: 25 mM Tris-HCl pH 7.5, 150 mM KCl, 1 mM DTT, 100 µg/mL BSA, 5 nM DNA, 30 °C 10 min, 4% native PAGE in 0.2x TBE; DNA curtains: 50 or 150 mM NaCl, 0.1 nM RPA-GFP. Particulars: protein: recombinant;recombinant; tags: His6, FLAG;none; copies: 1;1;1;1; label: 32P 5'-end; 5' overhang 30 nt (dT30), 20 bp duplex.

Sequence of dna2-D657A (nuclease-dead);RPA (P38859 whole entry D657A, chain 1 of 4): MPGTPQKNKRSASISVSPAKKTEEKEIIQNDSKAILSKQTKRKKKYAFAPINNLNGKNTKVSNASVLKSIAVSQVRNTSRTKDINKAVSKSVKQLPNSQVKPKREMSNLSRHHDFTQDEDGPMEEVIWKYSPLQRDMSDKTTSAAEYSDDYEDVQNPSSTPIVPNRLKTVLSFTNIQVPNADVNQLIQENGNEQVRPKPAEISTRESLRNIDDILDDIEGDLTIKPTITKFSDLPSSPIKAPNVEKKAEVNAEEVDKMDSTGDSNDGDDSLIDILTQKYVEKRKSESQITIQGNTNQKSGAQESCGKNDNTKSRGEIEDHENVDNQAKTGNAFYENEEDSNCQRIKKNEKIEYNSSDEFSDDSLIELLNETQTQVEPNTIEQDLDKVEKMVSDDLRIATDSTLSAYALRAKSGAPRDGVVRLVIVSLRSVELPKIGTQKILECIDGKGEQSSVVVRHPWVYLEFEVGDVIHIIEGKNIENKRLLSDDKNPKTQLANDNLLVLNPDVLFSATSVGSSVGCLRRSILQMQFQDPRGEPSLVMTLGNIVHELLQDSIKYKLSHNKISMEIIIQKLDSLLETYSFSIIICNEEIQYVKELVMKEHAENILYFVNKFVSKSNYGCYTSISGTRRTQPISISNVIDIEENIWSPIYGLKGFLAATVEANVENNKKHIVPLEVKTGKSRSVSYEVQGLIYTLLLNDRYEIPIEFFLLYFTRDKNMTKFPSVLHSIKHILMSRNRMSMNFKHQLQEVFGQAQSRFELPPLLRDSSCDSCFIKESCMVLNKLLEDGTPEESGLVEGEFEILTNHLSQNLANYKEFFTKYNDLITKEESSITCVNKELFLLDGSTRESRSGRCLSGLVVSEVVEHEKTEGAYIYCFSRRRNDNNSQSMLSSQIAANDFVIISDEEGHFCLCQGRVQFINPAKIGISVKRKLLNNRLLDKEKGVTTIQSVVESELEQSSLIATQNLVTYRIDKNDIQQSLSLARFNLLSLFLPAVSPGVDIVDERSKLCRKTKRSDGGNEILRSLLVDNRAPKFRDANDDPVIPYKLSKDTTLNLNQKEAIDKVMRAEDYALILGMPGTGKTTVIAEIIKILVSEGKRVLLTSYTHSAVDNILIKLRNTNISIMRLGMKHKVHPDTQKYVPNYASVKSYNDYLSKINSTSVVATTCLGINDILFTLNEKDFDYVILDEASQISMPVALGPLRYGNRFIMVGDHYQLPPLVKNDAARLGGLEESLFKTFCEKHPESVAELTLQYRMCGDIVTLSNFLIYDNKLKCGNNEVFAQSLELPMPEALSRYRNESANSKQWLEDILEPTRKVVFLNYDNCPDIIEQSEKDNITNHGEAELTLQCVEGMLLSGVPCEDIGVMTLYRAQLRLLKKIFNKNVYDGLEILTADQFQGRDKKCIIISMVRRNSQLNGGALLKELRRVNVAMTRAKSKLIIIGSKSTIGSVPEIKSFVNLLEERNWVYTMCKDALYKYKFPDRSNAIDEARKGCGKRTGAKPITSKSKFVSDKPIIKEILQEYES
Sequence of dna2-D657A (nuclease-dead);RPA (P22336 whole entry, chain 2 of 4): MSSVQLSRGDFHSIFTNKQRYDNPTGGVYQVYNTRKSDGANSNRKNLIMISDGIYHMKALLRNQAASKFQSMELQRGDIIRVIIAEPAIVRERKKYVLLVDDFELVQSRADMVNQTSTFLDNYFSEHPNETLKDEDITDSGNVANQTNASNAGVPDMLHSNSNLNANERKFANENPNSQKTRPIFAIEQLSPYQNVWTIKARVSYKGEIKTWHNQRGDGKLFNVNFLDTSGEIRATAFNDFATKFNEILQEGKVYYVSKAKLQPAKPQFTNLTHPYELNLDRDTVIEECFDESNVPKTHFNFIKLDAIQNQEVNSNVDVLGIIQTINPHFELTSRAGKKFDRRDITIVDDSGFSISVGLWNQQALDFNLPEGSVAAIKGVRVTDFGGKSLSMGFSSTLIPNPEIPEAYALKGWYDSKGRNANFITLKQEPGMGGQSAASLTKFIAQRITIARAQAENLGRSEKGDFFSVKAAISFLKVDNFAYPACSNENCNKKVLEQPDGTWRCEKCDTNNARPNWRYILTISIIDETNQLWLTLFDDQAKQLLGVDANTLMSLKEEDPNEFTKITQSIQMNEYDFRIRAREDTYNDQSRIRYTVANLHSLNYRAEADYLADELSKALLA
Sequence of dna2-D657A (nuclease-dead);RPA (P26754 whole entry, chain 3 of 4): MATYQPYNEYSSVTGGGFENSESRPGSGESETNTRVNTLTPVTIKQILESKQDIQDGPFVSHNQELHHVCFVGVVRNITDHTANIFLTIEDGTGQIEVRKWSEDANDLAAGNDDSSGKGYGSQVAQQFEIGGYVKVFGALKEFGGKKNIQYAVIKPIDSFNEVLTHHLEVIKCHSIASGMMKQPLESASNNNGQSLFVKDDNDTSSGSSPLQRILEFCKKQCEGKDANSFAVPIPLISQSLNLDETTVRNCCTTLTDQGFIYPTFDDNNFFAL
Sequence of dna2-D657A (nuclease-dead);RPA (P26755 whole entry, chain 4 of 4): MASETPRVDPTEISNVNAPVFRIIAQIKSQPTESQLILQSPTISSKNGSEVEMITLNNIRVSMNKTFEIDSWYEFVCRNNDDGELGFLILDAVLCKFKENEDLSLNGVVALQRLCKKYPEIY

B1: 5'-overhanging dT(30) DNA (S10+S11) (mixed)
DNA 1: TTTTTTTTTTTTTTTTTTTTTTTTTTTTTTTTGATAAGAGGTCATTTGAA
DNA 2: TTCAAATGACCTCTTATCAA
As to B1, the binding result is “binds”.

These data come from PMC8766458, “Deciphering the mechanism of processive ssDNA digestion by the Dna2-RPA ensemble” (Nature Communications, 2022).
